Assay: yeast display, Sf9 membrane polyspecificity reagent, FACS + sequencing; frameworks hold sequencing errors
Method in brief: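 Nanobodies from a synthetic yeast display library (Saccharomyces cerevisiae BJ5465), induced 36–48 hours with galactose, were stained 1 hour at 4 °C with 10% biotinylated, detergent-solubilized Sf9 membrane reagent, enriched on streptavidin microbeads, then FACS-sorted. Anti-HA (expression) and streptavidin (reagent binding) fluorescence set low and high (top ~1%) gates. Polyreactivity labels come from the gate of origin. Genes were colony-PCR amplified, MiSeq 2 × 250 sequenced and filtered by CDR length.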

Sequence: QVQLVESGGGLVQAGGSLRLSCAASGRTFGGYAMGWYRQAPGKESELVARISRSGGSTYYADSVKGRFTISRDNAKNTVYLQMNSLKPEDTAVYYCNTGLRNAYGWPQDDYWGQGTQVTVSS
- polyreactivity (PSR sort gate): low polyreactivity

Sequence: QVQLVESGGGLVQAGGSLRLSCAASGRTFGIYAMGWYRQAPGKERELVAAITWSGDSTYYADSVKGRFTISRDNAKNTVYLQMNSLKPEDTAVYYCAADYVGVTSVRYDYWGQGTQVTVSS
- polyreactivity (PSR sort gate): low polyreactivity

Sequence: QVQLVESGGGLVQAGGSLRLSCAASGRTFGIYAMGWYRQAPGKERELVATISWRGGSTYYADSVKGRFTISRDNAKNTVYLQMNSLKPEDTAVYYCAAGYYPYWGQGTQVTVSS
- polyreactivity (PSR sort gate): low polyreactivity

Sequence: QVQLVESGGGLVQAGGSLRLSCAASGRTFGIYVMGWYRQAPGKEMEWVAAIRGGGTTYYADSVKGRFTISRENAKNTVYLQMNSLKPEDTAVYYCAAVVKWWGQSRYDYWGQGTQVTVSS
- polyreactivity (PSR sort gate): high polyreactivity

Sequence: QVQLVESGGGLVQAGGSLRLSCAASGRTFGKYAMGSYTQAPGKETELVAAISSSGGSTYYADSVKGRFTISRDNAKNTVYLQMNSVKPEDTAVYYCGARWSYRDDYWGQGTQVTVSS
- polyreactivity (PSR sort gate): high polyreactivity

Sequence: QVQLVESGGGLVQAGGSLRLSCAASGRTFGKYAMGWDRQAPGKEMELVAAISTDVGDTYYADSVKGRFTISRDNAKNTVYLQMNSLKPEDTAVYYCAASFVYYGVDFVSWFWEGDYWGQGTQVTVSS
- polyreactivity (PSR sort gate): low polyreactivity

Sequence: QVQLVESGGGLVQAGGSLRLSCAASGRTFGKYAMGWYRQAPGKERELVASITFSSGSTYYADSVKGRFTISRDNAKNTVYLQMNSLKPEDTAVYYCAKRGWGIYDYWGQGTQVTVSS
- polyreactivity (PSR sort gate): low polyreactivity

Sequence: QVQLVESGGGLVQAGGSLRLSCAASGRTFGKYAMGWYRQAPGKERELVATISLSGGSTYYADSVKGRFTISRDNAKNTVYLQMNSLKPEDTAVYYCAARRKFDYWGQGTQVTVSS
- polyreactivity (PSR sort gate): high polyreactivity

Sequence: QVQLVESGGGLVQAGGSLRLSCAASGRTFGKYAMGWYTQAPGKEREFVAAISWSGATTRYADSVKGRFTISRDNAKNTVYLQMNSLKPEDTAVYYCAATYYYVYGYRGDYWGQGTQVTVSS
- polyreactivity (PSR sort gate): high polyreactivity

Sequence: QVQLVESGGGLVQAGGSLRLSCAASGRTFGKYTMGWYRQAPGKERELVAAINRRGGSTYYADSVKGRFTISRDNAKNTVYLQMNSLKPEDTAVYYCAKDGYSIDRYYWGQGTQVTVSS
- polyreactivity (PSR sort gate): high polyreactivity

Sequence: QVQLVESGGGLVQAGGSLRLSCAASGRTFGLYAMGWYRQAPGKERELVAAIDQSTGSTYYADSVKGRFTISRDHAKNTVYLQMNSLKPEDTAVYYCAAEEASTVRYYWYDYWGQGTQVTVSS
- polyreactivity (PSR sort gate): high polyreactivity

Sequence: QVQLVESGGGLVQAGGSLRLSCAASGRTFGLYAMGWYRQAPGKERELVAAISWGGGRTYYADSVKGRFTISRDNAKNTVYLLMNSLKPEDTAVYYCNALYATYYLGYDYWGQGTQVTVSS
- polyreactivity (PSR sort gate): high polyreactivity

Sequence: QVQLVESGGGLVQAGGSLRLSCAASGRTFGLYAMGWYRQAPGKERELVATISVSSGSTYYADSVKGRFTISRDNAKYTVYLQMNSLKPEDTAVYYCNVRYKRNRWQYDYWGQGTQVTVSS
- polyreactivity (PSR sort gate): high polyreactivity

Sequence: QVQLVESGGGLVQAGGSLRLSCAASGRTFGLYDMGWYRQAPGKERELVAGITRRGGCTYYADSVKGRFTISRDNAKNTVYLQMYSLKPEDTAVYYCAAGTIYLRHAQSPFDYWGQGTQVTVSS
- polyreactivity (PSR sort gate): high polyreactivity

Sequence: QVQLVESGGGLVQAGGSLRLSCAASGRTFGPNVIGWYRQAPGKERELVAAITSGGTTYYADSVKGRFTISRDNAKNTVYLQMNSLKPEDTAVYYCNARYVYHSSFAGFDYWGQGTQVTVSS
- polyreactivity (PSR sort gate): low polyreactivity

Sequence: QVQLVESGGGLVQAGGSLRLSCAASGRTFGPYAMGWYRQAPGKEREFVAAISYSGGSTYYADSVKGRFTISRDNAKNTVYLQMNSLKPEDTAVYYCAVDIDSNSGTRDYWGQGTQVTVSS
- polyreactivity (PSR sort gate): low polyreactivity

Sequence: QVQLVESGGGLVQAGGSLRLSCAASGRTFGQYAMGWYRQAPGKERELVAAITGGGSTNYADSVKGRFTISRDNAKNTVYLHMNSLKPEDTAVYYCAAKARSYWYPRLYIYEGDYWGQGTQVTVSS
- polyreactivity (PSR sort gate): low polyreactivity

Sequence: QVQLVESGGGLVQAGGSLRLSCAASGRTFGQYAMGWYRQAPGKERELVAAITTRGGSTYYADSVKGRFTISRDNAKNTVYLQMNSLKPEDTAVYYCIADYPVKRRRGRDYWGQGTQVTVSS
- polyreactivity (PSR sort gate): high polyreactivity

Sequence: QVQLVESGGGLVQAGGSLRLSCAASGRTFGQYVMGWYRQAPGKERELVAAISSGDSTNYADSVKGRFTISRDNAKNTVYFQMNSLKPEDTAVYYCAAVYWVLWQGSTYGYWGQGTQVTVSS
- polyreactivity (PSR sort gate): low polyreactivity

Sequence: QVQLVESGGGLVQAGGSLRLSCAASGRTFGRNAMGWYRQAPGERELVAVISRRGSTYYADSVKGRFTISRDNAKNTVYLQMNSLKPEETAVDYCAAYYYIGGKYGSQVYEYDYWGQGTQVTVSS
- polyreactivity (PSR sort gate): low polyreactivity

Sequence: QVQLVESGGGLVQAGGSLRLSCAASGRTFGRNAMGWYRQAPGKERELVAAITWSGGRTYYADSVKGRFSISRDNAKNTVYLQMNSLKPEDTAVYYCARGSSSISIFYRYDYWGQGTQVTVSS
- polyreactivity (PSR sort gate): high polyreactivity

Sequence: QVQLVESGGGLVQAGGSLRLSCAASGRTFGRYAKGWSRQAPGKERELVAAISYSTDSTYYADSVKGRFTISRDNAKNTDYLQMNSLKPEYTAVYYCATDSVNVGSYVGDKHDYWGHGTQVTVSS
- polyreactivity (PSR sort gate): low polyreactivity

Sequence: QVQLVESGGGLVQAGGSLRLSCAASGRTFGRYAMGWYRQAPGKERELVAAISTSGGSTYYADSVKGRFTISRDNAKNTVYLQMNSLKPEDTAVYYCAATIGRRSYNQMYYWGQGTQVTVSS
- polyreactivity (PSR sort gate): high polyreactivity

Sequence: QVQLVESGGGLVQAGGSLRLSCAASGRTFGRYAMGWYRQAPGKERELVAAISYSTDSTYYADSVKGRFTISRDNAKNTVYLQMNSLKPEDTAVYYCAADRLRTSGYKTIYDYWGQGTQVTVSS
- polyreactivity (PSR sort gate): low polyreactivity

Sequence: QVQLVESGGGLVQAGGSLRLSCAASGRTFGRYAMGWYRQAPGKERELVAAITRSGGSTNYADSVKGRFTISRDNAKNTVYLQMNSLKPEDTAVYYCARRGYSVRTPEGYYWGQGTQVTVSS
- polyreactivity (PSR sort gate): high polyreactivity

Sequence: QVQLVESGGGLVQAGGSLRLSCAASGRTFGRYAMGWYRQAPGKERELVAGISGSVGITYYADSVKGRFTISRDNAKNTVYLQMNSLKPEDTAVYYCAVVARAGHKYDYWGQGTQVTVSS
- polyreactivity (PSR sort gate): low polyreactivity

Sequence: QVQLVESGGGLVQAGGSLRLSCAASGRTFGRYAMGWYRQAPGKERELVARIRTSGGRTYYADSVKGRFTISRDNAKYTVYLQMNSLKPEDTAVYYCATTSQPWYYWSTQGDDYWGQGTQVTVSS
- polyreactivity (PSR sort gate): low polyreactivity

Sequence: QVQLVESGGGLVQAGGSLRLSCAASGRTFGRYAMGWYRQAPGKERELVARISFTGGSTYADSVKGRFTISRDNAKNTVYLQMNSLKPEDTAVYYCNVPYYINHKFYDSPFVQRYDYWGQGTQVTVSS
- polyreactivity (PSR sort gate): low polyreactivity

Sequence: QVQLVESGGGLVQAGGSLRLSCAASGRTFGRYAMVWYRQAPGKEREFVASISRRGGTTYYADSVKGRFTISRDNAKNSVYLQMNSLKPEDTAVYYCNADRTVIYDYEYWGQGTQVTVSS
- polyreactivity (PSR sort gate): low polyreactivity

Sequence: QVQLVESGGGLVQAGGSLRLSCAASGRTFGRYLMGWYRQAPGKERLLVAAISFSGTGTYYADSVKGRFTISRDNAKYTVYLQMNSLKPEDTAVYYCAKGVTRVQYKHYYWGQGTQVTVSS
- polyreactivity (PSR sort gate): high polyreactivity

Sequence: QVQLVESGGGLVQAGGSLRLSCAASGRTFGRYSMGWYRQAPGKERELVAAISYSTDSTYYADSVKGRFTISRDNAKNTVYLQMNSLKPEDTAVYYCAALGYHRYRNYDYWGQGTQVTVSS
- polyreactivity (PSR sort gate): low polyreactivity

Sequence: QVQLVESGGGLVQAGGSLRLSCAASGRTFGSNAMGWYRQAPGKERELVANIDGGGGTYADSVKGRFTISRDNAKNTVYLQMNSLKPEDTAVYYCATRWSGYDMDYWGQGTQVTVSS
- polyreactivity (PSR sort gate): low polyreactivity

Sequence: QVQLVESGGGLVQAGGSLRLSCAASGRTFGSYAMGWYRPAPGKERELVAGISWSGGITYYADSVKGRFTISRDNAKNSVYLQMNSLKPEDTAVYYCAADSVVWEMEYWGQGTQVTVSS
- polyreactivity (PSR sort gate): high polyreactivity

Sequence: QVQLVESGGGLVQAGGSLRLSCAASGRTFGSYAMGWYRQAPGKEREFVAGISYGGGRTYYADSVKGRFTISRDNAKNTVYLQMNSLKPEDTAVYYCAADGVYRYNYPYLYTYDYWGQGTQVTVSS
- polyreactivity (PSR sort gate): low polyreactivity

Sequence: QVQLVESGGGLVQAGGSLRLSCAASGRTFGSYAMGWYRQAPGKERELVAAISRSGTNTYYADSVKGRFTISRDNAKNTVYLQMNSLKPEDTAVYYCATDFYFSSVLVWFSYGYWGQGTQVTVSS
- polyreactivity (PSR sort gate): low polyreactivity

Sequence: QVQLVESGGGLVQAGGSLRLSCAASGRTFGSYTMGWYRQAPGKERELVAAISWSGGRTYYADSVKGRFTISRDNAKNTVYLQMNSLKPEDTAVYYCNADAEVVPGEYDYWGQGTQVTVSS
- polyreactivity (PSR sort gate): low polyreactivity

Sequence: QVQLVESGGGLVQAGGSLRLSCAASGRTFGTNAMGWYRQAPGKERELVASIDLSADSTYYADSVKGRFTISRDNAKNNFYLQMNSLKPEDTAVYYCNKDGYPWPPNLDYWGQGTQVTVSS
- polyreactivity (PSR sort gate): low polyreactivity

Sequence: QVQLVESGGGLVQAGGSLRLSCAASGRTFGTNTMGWYRQAPGKEREFVATITSSGGSTYYADSVKGRFTISRDNAKNTVYVQINSLKPEATAVYYCATDPYGGNTLYPSLRYDYWGQGTQVTVSS
- polyreactivity (PSR sort gate): low polyreactivity

Sequence: QVQLVESGGGLVQAGGSLRLSCAASGRTFGTYAMGWYRQAPGKERELVAAITSGTRTYYADSVKGRFTISRDNAKNTVYLQMNSLKPEDTAVYDCAAGLVYRWSSTPRRLYYYWGQGTQVTVSS
- polyreactivity (PSR sort gate): high polyreactivity

Sequence: QVQLVESGGGLVQAGGSLRLSCAASGRTFGVNAMGWYRQAPGKERELVAAISRSGGSTYYADSVKGRFTISRDNAKNTVYLQMNSLKPEDTAVYYCAKSYFGNHLTGFGYWGQGTQVTVSS
- polyreactivity (PSR sort gate): low polyreactivity

Sequence: QVQLVESGGGLVQAGGSLRLSCAASGRTFGVYAMGSYRQAPGKEREFVATIRTTGSTNYADSVKGRFTISRDNAKNTVYLQMNSLKTEDTAVYYCAARQRQSKYYPYTTFTYDYWGQGTQVTVSS
- polyreactivity (PSR sort gate): high polyreactivity

Sequence: QVQLVESGGGLVQAGGSLRLSCAASGRTFGVYAMGWYRQAPGKERELVAAIRWSGGGTYYADSVKGRFTISRDNAKNTVYLQMISLKPEDTAVYYCAATFQNSPYTRYTDMYYWGQGTQVTVSS
- polyreactivity (PSR sort gate): low polyreactivity

Sequence: QVQLVESGGGLVQAGGSLRLSCAASGRTFGWNAMGWYRQAPGKERELVAAISLRGTSTYYADSVKGRFTISRDNAKNTVYLQMNSLKPEDTAVYYCAARGRNGVNYWGQGTQVTVSS
- polyreactivity (PSR sort gate): high polyreactivity
